Literature values as cited in PMC4030972.

Biological target: cholera toxin A1 subunit CtxA1 (Vibrio cholerae) (UniProt P01555)
UniProt P01555, sequence (P01555 19-212): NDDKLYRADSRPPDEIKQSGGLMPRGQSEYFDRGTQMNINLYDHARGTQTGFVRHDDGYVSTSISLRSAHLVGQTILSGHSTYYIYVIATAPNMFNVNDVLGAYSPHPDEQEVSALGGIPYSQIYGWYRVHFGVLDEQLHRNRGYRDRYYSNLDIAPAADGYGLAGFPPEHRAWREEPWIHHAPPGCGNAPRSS

**Q.** For Hsp90 (from UniProt P08238), which Kd is on record?
**A.** The Kd was 7 nM.
